Paper PMC9569855 (International Journal of Molecular Sciences, 2022)

Molecular target: SARS-CoV-2 wild type RBD (319-541aa) (SARS-CoV-2, UniProt P0DTC2)
Assay: SPR
Conditions: both partners purified

B1: Bamlanivimab (antibody, V domains shown)
VH: QVQLVQSGAEVKKPGSSVKVSCKASGGTFSNYAISWVRQAPGQGLEWMGRIIPILGIANYAQKFQGRVTITADKSTSTAYMELSSLRSEDTAVYYCARGYYEARHYYYYYAMDVWGQGTAVTVSS
VL: not shown
  Kd: 1.4 nM
